From patent US12404312B2, “Engineered VEGF variants for retinal neuroprotection, promotion of axon growth and axon regeneration” (Massachusetts Eye and Ear Infirmary, priority 2018, dated 2025)

What was measured:
VEGFR2 = molecular target: T1, VEGFR2 (Homo sapiens, UniProt P35968); test: VEGFR2 activation (p-VEGFR2 western blot) in transfected hREC; assay type: cell-based; settings: hREC transfected with expression construct; lysate at 24 and 48 hours post transfection; vs GFP control
T1 construct: Human retinal endothelial cells (hREC) that express VEGFR2; endogenous in cells; host or cells: human retinal endothelial cells (hREC)
Method: Human retinal endothelial cells (hREC) that express VEGFR2 were transfected with eVEGF-38 or eVEGF-53, or VEGF189, or control GFP (ctr) expression construct and total cell lysate was collected at 24 and 48 hours post transfection. Activation of VEGFR2 was determined by the levels of VEGFR2 phosphorylation (p-VEGFR2). Data=mean±SD, **P<0.01 by unpaired t-test, n=3 independent western blot assays.
(§1) eVEGF-38 and eVEGF-53 localize to the cell membrane and comprise myc-tags. VEGF189 was constructed with a myc-tag. The constructs were packaged into adeno-associated virus serotype 2 (AAV2) for efficient transduction and expression in human microvascular endothelial cells (hREC) and RGC. Transgenes expression was measured by western blot, qPCR and immunostaining. In hREC, VEGFR2, VCAM-1, E-selectin and tissue factor expression were measured by immunostaining or qPCR. VEGFR2 signaling, axon length, and synapse formation in RGC were measured by immunostaining. RGC survival was measured by TUNEL staining and intracellular [Ca2+] was measured using fura2/AM calcium imaging.

RGC = test: Intracellular [Ca2+] in RGC by fura2/AM calcium imaging; assay type: cell-based, mouse; settings: upon carbachol and NMDA stimulation; compared to control
Method: as §1

primary mouse RGC [1] = test: Axon and neurite formation in primary mouse RGC; assay type: cell-based; settings: for average number of branch points of neurite per RGC / average axon length per RGC / average number of neurites per RGC / percentage of RGC with axons longer than 3× cell body length: primary RGC; for average number of branch points of neurite per RGC: compared to control; for average axon length per RGC / average number of neurites per RGC / percentage of RGC with axons longer than 3× cell body length: compared to the GFP control
Description: FIG. 6 is a series of photomicrographs showing correlative fluorescence and electron microscopy showing extra long axons (>1400 μm) from some of the eVEGF-38 overexpressing primary RGC. Green arrows, eVEGF-38 overexpressing cells; blue arrows, untransduced primary mouse RGC.
FIGS. 7A and 7B are a series of bar graphs and dot plots showing that VEGFR2 signaling is required for the formation of long axons by primary RGC overexpressing eVEGF-38, eVEGF-53, and VEGF189. […] Recombinant VEGF121 protein was added to a final concentration of 2.5 nM. […] Labels: 38, eVEGF-38; 53, eVEGF-53; 189, VEGF189; UT, untreated. Data=mean±SD, n=15 fields from 3 independent wells per group, *P<0.05, **P<0.01, ***P<0.001, one-way ANOVA.
as §1

primary RGC = test: Synapse formation / synaptophysin expression in primary RGC; assay type: cell-based, mouse; settings: for synaptic vesicle marker synaptophysin in axons and neurites: primary RGC overexpressing the transgene
Method: as §1

primary mouse RGC [2] = test: Survival of primary mouse RGC in culture; assay type: cell-based; settings: control 22% survival, P<0.001
Method: FIG. 3A is a bar graph showing the results from experiments using primary mouse RGC isolated from P3 pups were transduced with different AAVs to overexpress eVEGF-38, eVEGF-53, VEGF189, or the control GFP on the day of isolation (day 0), or treated with exogenous recombinant VEGF121 protein on day 2. The number viable RGC was determined by immunostaining for beta III tubulin while total cell number per field was determined by DAPI staining on day 3 of culture.
FIG. 3B is a bar graph showing that the majority of the viable RGC were expressing the eVEGF-38, eVEGF-53, or VEGF189, whereas the GFP-expressing RGC were not protected in culture. Data=mean±SD, ***P<0.001 by unpaired t-test, n=15 different fields total (5 fields/well) from three independent wells of primary RGC.
as §1

primary mouse RGC [3] = test: H2O2-induced cell death of primary mouse RGC (TUNEL staining); assay type: cell-based; settings: P<0.05
Method: as §1, with “Cell death was analyzed by TUNEL staining” for “eVEGF-38”, “transgene expression by immunostaining. Percentage of viable RGC was determined by: (TUNEL-negative RGC with transgenes expression)/(total” for “eVEGF-53 localize to the”, “number by DAPI staining). […]” for “membrane and comprise myc-tags. VEGF189 was constructed with a myc-tag.”

[4] = test system: human microvascular endothelial cells (hREC); test: Pro-inflammatory markers (VCAM-1, E-selectin, tissue factor) in hREC by immunostaining or qPCR; assay type: cell-based; settings: compared with GFP/AAV2 control, p<0.05
Method: as §1

primary mouse RGC [5] = test: Gene expression analysis of primary mouse RGC; assay type: cell-based; settings: overexpressing primary mouse RGC; vs GFP control
Description: FIG. 9 is a series of bar graphs showing that overexpression of eVEGF-38 in primary RGC suppresses genes that are associated with cell death and suppression of axon formation, but induces genes that are associated with axon growth and neuronal function. Label: 38, eVEGF-38; Ctr, GFP control. Data=mean±SD, n=3 independent wells of primary RGC, *P<0.05, **P<0.01, ***P<0.001 by unpaired t-test.
Furthermore, eVEGF-38 and eVEGF-53 chimeric polypeptides and VEGF189 expression enhanced axons and neurites formation of primary mouse RGCs (FIGS. 5A-C, FIG. 6, and FIGS. 7A-B), supported synaptogenesis and likely neuronal function (FIG. 8), which are consistent with the role of VEGF in promoting neurogenesis and neuronal function in vitro and in vivo. […] Together, the data support overexpression of eVEGF-38, eVEGF-53 and the natural VEGF189 isoform in RGC promotes cell-autonomous RGC survival, axon growth and regeneration, and neuronal function, and is useful and a therapeutic agent for treatment of glaucoma. The chimeric polypeptides can be used therapeutically via a gene therapy approach (AAV) for eVEGF-38, eVEGF-53 and VEGF189. Activity is tested in animal models of glaucoma and optic nerve injury/regeneration.

T1 sequence (P35968 20-1356): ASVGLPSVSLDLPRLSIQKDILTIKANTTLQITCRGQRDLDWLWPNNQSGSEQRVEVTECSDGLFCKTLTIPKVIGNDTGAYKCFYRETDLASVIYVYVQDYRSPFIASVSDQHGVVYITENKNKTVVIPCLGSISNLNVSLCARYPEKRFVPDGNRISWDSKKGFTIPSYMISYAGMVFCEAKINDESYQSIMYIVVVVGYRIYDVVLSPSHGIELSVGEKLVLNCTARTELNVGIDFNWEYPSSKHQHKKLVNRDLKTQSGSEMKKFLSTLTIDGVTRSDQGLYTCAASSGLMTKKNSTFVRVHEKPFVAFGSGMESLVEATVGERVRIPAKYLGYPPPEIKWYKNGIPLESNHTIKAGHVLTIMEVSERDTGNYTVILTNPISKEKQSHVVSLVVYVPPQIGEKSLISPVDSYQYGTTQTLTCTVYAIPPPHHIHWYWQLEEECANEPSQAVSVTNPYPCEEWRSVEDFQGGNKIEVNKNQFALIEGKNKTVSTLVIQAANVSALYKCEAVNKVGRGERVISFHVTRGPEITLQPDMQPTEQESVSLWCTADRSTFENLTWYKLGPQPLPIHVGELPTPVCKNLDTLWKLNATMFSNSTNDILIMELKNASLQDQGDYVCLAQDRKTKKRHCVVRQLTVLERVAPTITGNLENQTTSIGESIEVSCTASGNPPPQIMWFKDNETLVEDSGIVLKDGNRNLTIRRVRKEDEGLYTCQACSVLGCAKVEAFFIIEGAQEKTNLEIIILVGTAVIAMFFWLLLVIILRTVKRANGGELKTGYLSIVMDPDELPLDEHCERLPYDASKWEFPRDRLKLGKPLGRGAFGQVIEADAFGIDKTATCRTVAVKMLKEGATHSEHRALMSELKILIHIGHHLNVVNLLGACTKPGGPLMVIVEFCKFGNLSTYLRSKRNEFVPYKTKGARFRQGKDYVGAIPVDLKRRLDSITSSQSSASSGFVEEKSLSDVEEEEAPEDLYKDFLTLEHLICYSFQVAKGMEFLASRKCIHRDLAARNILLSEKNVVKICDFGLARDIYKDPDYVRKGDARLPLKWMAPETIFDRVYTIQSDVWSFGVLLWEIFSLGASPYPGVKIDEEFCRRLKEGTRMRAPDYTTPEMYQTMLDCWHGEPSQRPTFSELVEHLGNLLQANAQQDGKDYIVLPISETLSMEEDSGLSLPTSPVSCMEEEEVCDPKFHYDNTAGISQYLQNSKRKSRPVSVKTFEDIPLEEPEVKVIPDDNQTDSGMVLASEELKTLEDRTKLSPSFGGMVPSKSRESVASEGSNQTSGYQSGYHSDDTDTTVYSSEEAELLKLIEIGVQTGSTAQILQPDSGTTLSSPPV

B1: eVEGF-53: engineered covalently linked dimer of VEGF121 isoform with a 53 amino acid glycine-rich linker connected to a GPI anchor (SEQ ID NO: 2) (protein)
chain: MNFLLSWVHWSLALLLYLHHAKWSQAAPMAEGGGQNHHEVVKFMDVYQRSYCHPIETLVDIFQEYPDEIEYIFKPSCVPLMRCGGCCNDEGLECVPTEESNITMQIMRIKPHQGQHIGEMSFLQHNKCECRPKKDRARQEKCDKPRRGGSSGGSSGGSGGGTGGGSGAPMAEGGGQNHHEVVKFMDVYQRSYCHPIETLVDIFQEYPDEIEYIFKPSCVPLMRCGGCCNDEGLECVPTEESNITMQIMRIKPHQGQHIGEMSFLQHNKCECRPKKDRARQEKCDKPRRGNGNGNGNGNGNGNEQKLISEEDLKLAAAGNGNGNGNGNGNGNGDGNGGALCNGAGFATPVTLALVPALLATFWSLL
Q: B1 was tested. Which “VEGFR2 activation by levels of VEGFR2 phosphorylation (p-VEGFR2)” value (VEGFR2) did it give?
A: The value was “can sustain VEGFR2 activation in a cell autonomous fashion”.

Q: And the “intracellular [Ca2+]” value (RGC)?
A: The value was “decreased”.

Q: And the “average number of branch points of neurite per RGC” value (primary mouse RGC [1])?
A: The value was “significantly increase”.

Q: What about the “average axon length per RGC” value (primary mouse RGC [1]) of the same molecule?
A: The value was “significantly increases”.

Q: What about the “average number of neurites per RGC” value (primary mouse RGC [1]) of the same molecule?
A: The value was “significantly increases”.

Q: And the “percentage of RGC with axons longer than 3× cell body length” value (primary mouse RGC [1])?
A: The value was “significantly increases”.

Q: And the “synaptic vesicle marker synaptophysin in axons and neurites” value (primary RGC)?
A: The value was “also express synaptic vesicle marker synaptophysin”.

Q: And the RGC survival (primary mouse RGC [2])?
A: Its RGC survival is 48%.

Q: What about the “increased RGC survival upon H2O2 treatment compared to control” value (primary mouse RGC [3]) of the same molecule?
A: The value was 15%.

B2: VEGF189: natural VEGF189 isoform with strong heparin-binding domain, constructed with a myc-tag (SEQ ID NO: 3), tested for comparison (protein)
chain: MNFLLSWVHWSLALLLYLHHAKWSQAAPMAEGGGQNHHEVVKFMDVYQRSYCHPIETLVDIFQEYPDEIEYIFKPSCVPLMRCGGCCNDEGLECVPTEESNITMQIMRIKPHQGQHIGEMSFLQHNKCECRPKKDRARQEKKSVRGKGKGQKRKRKKSRYKSWSVPCGPCSERRKHLFVQDPQTCKCSCKNTDSRCKARQLELNERTCRCDKPRRKLGNGNGEQKLISEEDLGN
modifications: myc tag
Q: B2 was tested. Which “VEGFR2 activation by levels of VEGFR2 phosphorylation (p-VEGFR2)” value (VEGFR2) did it give?
A: Its value is “can sustain VEGFR2 activation in a cell autonomous fashion”.

Q: And the pro-inflammatory markers [4]?
A: Its pro-inflammatory markers is “increased”.

Q: What about the “average axon length per RGC” value (primary mouse RGC [1]) of the same molecule?
A: Its value is “significantly increases”.

Q: And the “average number of neurites per RGC” value (primary mouse RGC [1])?
A: The value was “significantly increases”.

Q: And the “percentage of RGC with axons longer than 3× cell body length” value (primary mouse RGC [1])?
A: The value was “significantly increases”.

Q: And the synapse formation (primary RGC; RGC)?
A: Its synapse formation is “promoted synapse formation”.

Q: And the “synaptic vesicle marker synaptophysin in axons and neurites” value (primary RGC)?
A: The value was “also express synaptic vesicle marker synaptophysin”.

Q: And the RGC survival (primary mouse RGC [2])?
A: Its RGC survival is 50%.

Q: What about the “increased RGC survival upon H2O2 treatment compared to control” value (primary mouse RGC [3]) of the same molecule?
A: Its value is 18%.

B3: eVEGF-38: engineered covalently linked dimer of VEGF121 isoform with a 38 amino acid glycine-rich linker connected to a GPI anchor (SEQ ID NO: 1) (protein)
chain: MNFLLSWVHWSLALLLYLHHAKWSQAAPMAEGGGQNHHEVVKFMDVYQRSYCHPIETLVDIFQEYPDEIEYIFKPSCVPLMRCGGCCNDEGLECVPTEESNITMQIMRIKPHQGQHIGEMSFLQHNKCECRPKKDRARQEKCDKPRRGGSSGGSSGGSGGGTGGGSGAPMAEGGGQNHHEVVKFMDVYQRSYCHPIETLVDIFQEYPDEIEYIFKPSCVPLMRCGGCCNDEGLECVPTEESNITMQIMRIKPHQGQHIGEMSFLQHNKCECRPKKDRARQEKCDKPRRGNGNGEQKLISEEDLKLAAAGNGGNGNGNGDGNGALCNGAGFATPVTLALVPALLATFWSLL
Q: What does the source list for B3?
A: VEGFR2 activation by levels of VEGFR2 phosphorylation (p-VEGFR2) (VEGFR2): can sustain VEGFR2 activation in a cell autonomous fashion; intracellular [Ca2+] (RGC): decreased; average number of branch points of neurite per RGC (primary mouse RGC [1]): significantly increase; average axon length per RGC (primary mouse RGC [1]): significantly increases; average number of neurites per RGC (primary mouse RGC [1]): significantly increases; percentage of RGC with axons longer than 3× cell body length (primary mouse RGC [1]): significantly increases; length of extra long axons (primary mouse RGC [1]; some of the overexpressing primary RGC, correlative fluorescence and electron microscopy): > 1400 μm; synaptic vesicle marker synaptophysin in axons and neurites (primary RGC): also express synaptic vesicle marker synaptophysin; RGC survival (primary mouse RGC [2]): 45%; genes involved in apoptosis and cell death (bax/bcl2 ratio) and inhibition of axon formation (Tsc1) (primary mouse RGC [5]): down-regulation; genes involved in axon growth (KLF7), neurogenesis (Microtubule-associated protein 1B) and synaptic vesicle trafficking (vesicle-associated membrane protein 3) (primary mouse RGC [5]): up-regulation; increased RGC survival upon H2O2 treatment compared to control (primary mouse RGC [3]): 10%
